{"source": "patent US8349318B2", "about": "“Use of specifically engineered enzymes to enhance the efficacy of prodrugs” (The Board of Trustees of the University of Illinois, priority 2008, dated 2013)", "origin": "cited, not measured here", "data": [{"molecule": "dNK: Drosophila melanogaster nucleoside kinase, SEQ ID NO:3 (protein, Drosophila melanogaster) MAEAASCARKGTKYAEGTQPFTVLIEGNIGSGKTTYLNHFEKYKNDICLLTEPVEKWRNVNGVNLLELMYKDPKKWAMPFQSYVTLTMLQSHTAPTNKKLKIMERSIFSARYCFVENMRRNGSLEQGMYNTLEEWYKFIEESIHVQADLIIYLRTSPEVAYERIRQRARSEESCVPLKYLQELHELHEDWLIHQRRPQSCKVLVLDADLNLENIGTEYQRSESSIFDAISSNQQPSPVLVSPSKRQRVAR", "values": [{"measurement": "kcat for dC phosphorylation", "setting": "Knecht et al., 2002", "value": 16.5, "unit": "s⁻¹"}, {"measurement": "efficiency for dC phosphorylation, higher than dCK", "setting": "compared with dCK", "value": "2,500 fold"}]}]}
